B1: Sestrin-2 (Homo sapiens), P58004 (parent)
chain: MIVADSECRAELKDYLRFAPGGVGDSGPGEEQRESRARRGPRGPSAFIPVEEVLREGAESLEQHLGLEALMSSGRVDNLAVVMGLHPDYFTSFWRLHYLLLHTDGPLASSWRHYIAIMAAARHQCSYLVGSHMAEFLQTGGDPEWLLGLHRAPEKLRKLSEINKLLAHRPWLITKEHIQALLKTGEHTWSLAELIQALVLLTHCHSLSSFVFGCGILPEGDADGSPAPQAPTPPSEQSSPPSRDPLNNSGGFESARDVEALMERMQQLQESLLRDEGTSQEEMESRFELEKSESLLVTPSADILEPSPHPDMLCFVEDPTFGYEDFTRRGAQAPPTFRAQDYTWEDHGYSLIQRLYPEGGQLLDEKFQAAYSLTYNTIAMHSGVDTSVLRRAIWNYIHCVFGIRYDDYDYGEVNQLLERNLKVYIKTVACYPEKTTRRMYNLFWRHFRHSEKVHVNLLLLEARMQAALLYALRAITRYMT
partner: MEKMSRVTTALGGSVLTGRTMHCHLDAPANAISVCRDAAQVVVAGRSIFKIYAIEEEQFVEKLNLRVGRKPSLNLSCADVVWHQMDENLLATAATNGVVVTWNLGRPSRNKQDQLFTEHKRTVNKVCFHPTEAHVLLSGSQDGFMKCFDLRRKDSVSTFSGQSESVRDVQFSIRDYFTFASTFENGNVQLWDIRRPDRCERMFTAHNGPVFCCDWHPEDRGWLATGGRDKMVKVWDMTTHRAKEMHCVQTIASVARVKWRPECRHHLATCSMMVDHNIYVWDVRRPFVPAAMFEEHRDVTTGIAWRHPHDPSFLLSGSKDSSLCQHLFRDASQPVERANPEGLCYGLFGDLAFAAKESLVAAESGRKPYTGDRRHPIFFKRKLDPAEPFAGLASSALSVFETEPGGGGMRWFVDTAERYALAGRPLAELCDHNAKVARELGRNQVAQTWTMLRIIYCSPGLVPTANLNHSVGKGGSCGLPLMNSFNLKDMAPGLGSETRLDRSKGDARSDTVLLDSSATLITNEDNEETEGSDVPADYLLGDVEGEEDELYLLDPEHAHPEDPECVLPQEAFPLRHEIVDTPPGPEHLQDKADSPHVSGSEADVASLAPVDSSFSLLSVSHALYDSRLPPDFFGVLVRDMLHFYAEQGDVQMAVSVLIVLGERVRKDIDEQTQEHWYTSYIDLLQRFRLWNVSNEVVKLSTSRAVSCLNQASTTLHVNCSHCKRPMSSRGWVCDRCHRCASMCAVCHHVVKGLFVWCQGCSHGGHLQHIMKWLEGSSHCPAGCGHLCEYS

Variants of: B1
Settings: with wdr24_human WDR24, Q96S15

Question: How did the “effect of a mutation on the interaction” value turn out when S190W was run?
Answer: disrupting interaction strength

From IntAct's records for PubMed 26449471
